The target in assay [1] is EGFR-GGS tagged at the C-terminus with a fluorescent protein (EGFR-GGS-YFP and EGFR-GGS-mCherry, co-expressed). Description: FRET or BRET.
Assay [2] deals with EGFR-GGS, chimeric receptor in which the JM domain is replaced by a (GGS)10 sequence. As to the kind of experiment: cross-linking.
For assay [3] the target is unchanged. Description: flow cytometry on cells.

Substance “EGFR-GGS tagged at the C-terminus with a fluorescent protein (EGFR-GGS-YFP and EGFR-GGS-mCherry, co-expressed) (receptor)” showed an FRET efficiency in assay [1] of 0.25. With “EGFR-GGS, chimeric receptor in which the JM domain is replaced by a (GGS)10 sequence”, in assay [2], the cross-linked fraction (no ligand) is 0.42, the cross-linked fraction (with EGF) was 0.64 and the stoichiometry N is 2. On to Alexa Fluor 488-labeled EGF (ligand), for which the ratio of EGFR-GGS-bound ligand to EGFR-bound ligand in assay [3] came to 1.

Values taken from PMC3497011.
